Results from patent publication US20200317768A1 (published 2020).

Legend:
Experiment in all cases: SPR (BIACORE), antibody captured, FcgR analyte
[1] = target: T1, human FcγRIIaH extracellular domain with C-terminal His-tag (human, UniProt P12318 34-217)
T1 construct: also called human FcgRIIaH; FcγRIIa (type H)
T1 sequence: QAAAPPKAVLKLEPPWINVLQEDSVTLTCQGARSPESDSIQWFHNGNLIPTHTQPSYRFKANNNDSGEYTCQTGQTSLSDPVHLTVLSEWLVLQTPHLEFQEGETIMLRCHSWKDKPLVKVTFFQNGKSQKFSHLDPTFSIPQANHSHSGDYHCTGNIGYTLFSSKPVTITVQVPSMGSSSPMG
Experimental: (§1) The kinetic analysis of interactions between these antibodies and FcγR was carried out using BIACORE® T200 or BIACORE® 4000 (GE Healthcare). HBS-EP+ (GE Healthcare) was used as the running buffer, and the measurement temperature was set to 25° C. A chip produced by immobilizing Protein A. Protein A/G or mouse anti-human IgG kappa light chain (BD Biosciences) onto a Series S Sensor Chip CM4 or CM5 (GE Healthcare) by the amine-coupling method was used. […] After the measurement, the antibody captured on the chip was washed off by allowing reaction with 10 mM glycine-HCl, pH1.5 and 25 mM NaOH so that the chip was regenerated and used repeatedly. The sensorgrams obtained as measurement results were analyzed by the 1:1 Langmuir binding model using the BIACORE® Evaluation Software to calculate the binding rate constant ka (L/mol/s) and dissociation rate constant kd (l/s), and the dissociation constant KD (mol/L) was calculated from these values. […] Regarding such interactions, KD values were calculated using the following 1:1 binding model described in BIACORE® T100 Software Handbook BR1006-48 Edition AE.
(§2) The behavior of interacting molecules according to the 1:1 binding model on BIACORE® can be described by Equation 1: Req=C·R max/(KD+C)+RI, wherein, Req is a plot of steady-state binding levels to analyte concentration. C is concentration, RI is bulk refractive index contribution in the sample, and Rmax is analyte binding capacity of the surface. When this equation is rearranged, KD can be expressed as Equation 2: KD=C·Rmax/(Req−RI)−C. KD can be calculated by substituting the values of Rmax, RI, and C into Equation 1 or Equation 2. From the current measurement conditions, RI=0, C=2 μmol/L can be used.

[2] = target: T2, cynomolgus monkey FcγRIIa1 extracellular domain with C-terminal His-tag (cynomolgus monkey)
T2 construct: also called cyno FcgRIIa1; cynoFcγRIIa1
T2 chain: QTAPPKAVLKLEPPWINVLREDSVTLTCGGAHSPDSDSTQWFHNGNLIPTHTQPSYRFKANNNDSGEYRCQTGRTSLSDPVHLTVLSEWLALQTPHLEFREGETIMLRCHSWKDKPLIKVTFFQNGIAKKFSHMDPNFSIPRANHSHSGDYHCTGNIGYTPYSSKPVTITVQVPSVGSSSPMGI
Experimental: as §1, §2

[3] = target: T3, human FcγRIIb extracellular domain with C-terminal His-tag (human, UniProt P31994 43-217)
T3 construct: also called human FcgRIIb
T3 sequence: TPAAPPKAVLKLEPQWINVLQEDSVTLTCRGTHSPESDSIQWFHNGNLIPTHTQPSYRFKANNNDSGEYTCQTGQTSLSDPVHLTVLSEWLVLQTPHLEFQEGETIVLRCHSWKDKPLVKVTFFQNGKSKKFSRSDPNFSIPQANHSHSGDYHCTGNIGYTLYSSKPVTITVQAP
Experimental: as §1, §2

[4] = target: T4, human FcγRIIIaV extracellular domain with C-terminal His-tag (human, UniProt P08637 17-208)
T4 construct: also called human FcgRIIIaV
T4 sequence (P08637 17-208 F176V): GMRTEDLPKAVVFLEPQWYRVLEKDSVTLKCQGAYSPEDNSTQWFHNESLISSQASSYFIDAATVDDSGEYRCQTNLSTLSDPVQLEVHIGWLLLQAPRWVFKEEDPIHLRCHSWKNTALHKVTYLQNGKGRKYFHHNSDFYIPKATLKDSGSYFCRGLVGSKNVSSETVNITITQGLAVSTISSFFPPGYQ
Experimental: as §1, §2

[5] = target: T5, cynomolgus monkey FcγRIIa3 extracellular domain with C-terminal His-tag (cynomolgus monkey)
T5 construct: also called cyno FcgRIIa3; cynoFcγRIIa3
T5 chain: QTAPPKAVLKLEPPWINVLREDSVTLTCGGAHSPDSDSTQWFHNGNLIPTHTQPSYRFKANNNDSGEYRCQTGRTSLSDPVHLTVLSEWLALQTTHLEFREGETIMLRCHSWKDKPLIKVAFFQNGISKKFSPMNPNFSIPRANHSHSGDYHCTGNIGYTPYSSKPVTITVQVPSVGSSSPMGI
Experimental: as §1, §2

[6] = target: T6, cynomolgus monkey FcγRIIIaS extracellular domain with C-terminal His-tag (cynomolgus monkey, UniProt Q8SPW2 21-206 at identity 1.00))
T6 construct: also called cyno FcgRIIIaS; cynoFcγRIIIaS
T6 chain: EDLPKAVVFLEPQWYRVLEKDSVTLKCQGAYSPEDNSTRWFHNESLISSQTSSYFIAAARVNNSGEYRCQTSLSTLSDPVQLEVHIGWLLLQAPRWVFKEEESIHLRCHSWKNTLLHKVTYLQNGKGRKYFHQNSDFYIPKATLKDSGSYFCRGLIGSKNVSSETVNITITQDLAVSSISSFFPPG
Experimental: as §1, §2

[7] = target: T7, cynomolgus monkey FcγRIIa2 extracellular domain with C-terminal His-tag (cynomolgus monkey)
T7 construct: also called cyno FcgRIIa2; cynoFcγRIIa2
T7 chain: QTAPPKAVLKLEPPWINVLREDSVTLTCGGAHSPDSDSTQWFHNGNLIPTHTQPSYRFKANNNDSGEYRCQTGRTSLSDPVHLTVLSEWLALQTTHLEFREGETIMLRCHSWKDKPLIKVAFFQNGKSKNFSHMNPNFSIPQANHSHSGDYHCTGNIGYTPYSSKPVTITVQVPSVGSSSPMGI
Experimental: as §1, §2

[8] = target: T8, cynomolgus monkey FcγRIIb extracellular domain with C-terminal His-tag (cynomolgus monkey)
T8 construct: also called cyno FcgRIIb; cynoFcγRIIb
T8 chain: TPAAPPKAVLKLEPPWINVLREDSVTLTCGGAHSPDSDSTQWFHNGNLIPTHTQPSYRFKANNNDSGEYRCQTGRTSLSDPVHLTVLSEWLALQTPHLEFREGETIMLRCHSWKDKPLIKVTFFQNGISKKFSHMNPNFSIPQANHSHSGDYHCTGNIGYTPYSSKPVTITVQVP
Experimental: as §1, §2

[9] = target: T9, human FcγRIIaR extracellular domain with C-terminal His-tag (human, UniProt P12318 34-217)
T9 construct: also called human FcgRIIaR; FcγRIIa (type R)
T9 chain: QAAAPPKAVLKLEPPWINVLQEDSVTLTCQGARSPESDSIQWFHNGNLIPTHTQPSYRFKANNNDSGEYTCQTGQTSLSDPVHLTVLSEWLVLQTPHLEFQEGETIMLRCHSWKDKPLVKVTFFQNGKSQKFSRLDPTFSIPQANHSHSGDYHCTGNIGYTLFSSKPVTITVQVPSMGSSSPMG
Experimental: as §1, §2

B1: M103205H795-MY538/M103202L889-SK1 (A231G/L234W/G236T/H268D/Q295L/A330K) (antibody, human IgG1, kappa)
heavy: QVTLKESGPVLVKPTETLTLTCTVSGIDLSHDDISWVRQAPGKGLEWVGIISYAGSTYYASWAKGRLTISKDTSKNQVVLTMTNMDPVDTATYYCARGVPAYSHGGDLWGQGTLVTVSSASTKGPSVFPLAPSSKSTSGGTAALGCLVKDYFPEPVTVSWNSGALTSGVHTFPAVLQSSGLYSLSSVVTVPSSSLGTQTYICNVNHKPSNTKVDKKVEPKSCDKTHTCPPCPGPEWLTGPSVFLFPPKPKDTLMISRTPEVTCVVVDVSDEDPEVKFNWYVDGVEVHNAKTKPREELYNSTYRVVSVLTVLHQDWLNGKEYKCKVSNKALPKPIEKTISKAKGQPREPQVYTLPPSREEMTKNQVSLTCLVKGFYPSDIAVEWESNGQPENNYKTTPPVLDSDGSFFLYSKLTVDKSRWQQGNVFSCSVMHEALHNHYTQKSLSLSP
light: DIVMTQSPATLSLSPGERATLSCTSSQSVYHANWLSWFQQKPGQPPKLLIYWASTLAYGVPSRFSGSGSGTDFTLTISSLQPEDAATYYCAGGYGGGRYAFGQGTKVEIKRTVAAPSVFIFPPSDEQLKSGTASVVCLLNNFYPREAKVQWKVDNALQSGNSQESVTEQDSKDSTYSLSSTLTLSKADYEKHKVYACEVTHQGLSSPVTKSFNRGEC
notes: Substitutions introduced into M103205H795-SG1, expressed with M103202L889-SK1 as light chain; EU numbering
Kd [1]: 0.25 µM
Kd [2]: 0.96 µM
Kd [3]: 1.3 µM
Kd [4]: 5.7 µM
Kd [5]: 3 µM
Kd [6]: 2.4 µM
Kd [7]: 1.1 µM
Kd [8]: 0.28 µM
Kd [9]: 0.62 µM
